From PMC7347456 (Structure (London, England : 1993), 2020)
Ends that are not written are not given here.

Key:
[1] = target: T1, full-length human LRH-1 (Liver Receptor Homolog-1; NR5A2), wild type (human, UniProt O00482 1-541); test: fluorescence polarisation
[2] = target: full-length human LRH-1 S148R (human, UniProt O00482 1-541, S148R); test: fluorescence polarisation
[3] = target: full-length human LRH-1 A324R (human, UniProt O00482 1-541, A324R); test: fluorescence polarisation
[4] = target: full-length human LRH-1 D314R (human, UniProt O00482 1-541, D314R); test: fluorescence polarisation
[5] = target: full-length human LRH-1 R174D/D314R (human, UniProt O00482 1-541, R174D | D314R); test: fluorescence polarisation
[6] = target: T1, full-length human LRH-1 (Liver Receptor …); test: cross-linking

T1 sequence (O00482 whole entry): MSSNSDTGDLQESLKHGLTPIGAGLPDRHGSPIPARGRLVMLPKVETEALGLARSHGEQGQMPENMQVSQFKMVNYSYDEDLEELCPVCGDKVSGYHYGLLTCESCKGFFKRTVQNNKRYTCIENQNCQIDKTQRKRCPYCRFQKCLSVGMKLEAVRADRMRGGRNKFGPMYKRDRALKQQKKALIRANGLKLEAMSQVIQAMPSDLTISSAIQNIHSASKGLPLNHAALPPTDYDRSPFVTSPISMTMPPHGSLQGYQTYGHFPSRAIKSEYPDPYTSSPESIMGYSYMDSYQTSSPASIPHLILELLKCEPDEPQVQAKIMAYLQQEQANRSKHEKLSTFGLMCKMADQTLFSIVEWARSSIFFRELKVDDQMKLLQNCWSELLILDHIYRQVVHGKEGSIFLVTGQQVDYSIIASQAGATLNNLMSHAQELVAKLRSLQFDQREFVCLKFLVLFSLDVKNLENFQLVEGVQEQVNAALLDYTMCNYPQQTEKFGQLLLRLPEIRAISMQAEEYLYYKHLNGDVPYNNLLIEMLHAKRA
Sequence of full-length human LRH-1 R174D/D314R (O00482 whole entry R174D/D314R): as the sequence (O00482 whole entry) above, with R174D, D314R counted along it
Sequence of full-length human LRH-1 S148R (O00482 whole entry S148R): as the sequence (O00482 whole entry) above, with S148R counted along it
Sequence of full-length human LRH-1 A324R (O00482 whole entry A324R): as the sequence (O00482 whole entry) above, with A324R counted along it
Sequence of full-length human LRH-1 D314R (O00482 whole entry D314R): as the sequence (O00482 whole entry) above, with D314R counted along it

Row | Binder | Kd [1] | Kd [2] | Kd [3] | Kd [4] | Kd [5] | binding result [6]
1 | {FAM}-EEPSLLKKLLLAPA [N-terminally FAM-labeled PGC1α co-regulator peptide (740-EEPSLLKKLLLAPA-753)] | 1360 nM | 7030 nM | 1510 nM | 2280 nM | 1720 nM | 
2 | EEPSLLKKLLLAPA [PGC1α co-activator peptide (740-EEPSLLKKLLLAPA-753), unlabeled] |  |  |  |  |  | binds
